According to patent US20240002497A1 (Merck Sharp & Dohme, published 2024):
Substitutions are numbered along the chain they refer to. Names may count otherwise. Blank lines part the entries; values can stand above or below the binder they belong to.

Legend:
rhNav1.7α + β1-β2-β3 = target: T1, rhNav1.7α + β1-β2-β3 (rhesus monkey); assay: binding FACS, CHO FlpIn cells
T1 construct: also called rhNav1.7-beta1-beta2-beta3; rhesus Nav1.7α
Method: (§1) Binding of the ISVDs to cell-expressed Nav1.7α was detected via murine anti-Flag (Sigma, catalog #F1804). Briefly, cells were resuspended in FACS buffer (PBS, 10% FBS, NaN₃) and transferred to a 96-well V-bottom plate at 1×10^5 cells/well. Purified FLAG3-tagged ISVD was diluted in FACS buffer and added to the cells for 30 minutes at 4° C. […] Prior to the read-out, the samples were resuspended in 1 μg/mL propidium iodide (Sigma, catalog #P4170) to exclude dead cells. Between each step, the cells were centrifuged for 5 minutes at 200 grams and washed with 100 μL/well FACS buffer.

huNav1.7α + β1-β2-β3 [1] = target: T2, huNav1.7α + β1-β2-β3 (human, UniProt Q15858 1-1988; A5A6L6 19-218; O60939 30-215; Q2KI11 23-215); assay: binding FACS, CHO FlpIn cells
T2 construct: Cell line (CHO FlpIn, HEK FlpIn, transient HEK293T) is named under assay; also called huNav1.7-beta1-beta2-beta3; human Nav1.7α with Navβ1, Navβ2 and Navβ3
Method: as §1

huNav1.7α + β1-β2-β3 [2] = target: T3, huNav1.7α + β1-β2-β3 (human, UniProt Q15858 1-1988; A5A6L6 19-218; O60939 30-215; Q2KI11 23-215); assay: binding FACS, CHO FlpIn
T3 construct: also called huNav1.7-beta1-beta2-beta3; huNav1.7-β1-β2-β3
Method: as §1

B1: F010301867 (VHH)
VHH: EVQLVESGGGLVQPGGSLRLSCATTSRQFIRDVFTGWYRRVPGKERELVARIYNGGNTNYADFAKGRFSISRDNAKKMVTLRMSNLKPEDTGVYYCLFSGTINTGREYRSGDYWGQGTLVTVSS
notes: A28Q vs F0103464B09 (Kabat)
Bmax (rhNav1.7α + β1-β2-β3): 74%
EC50 (rhNav1.7α + β1-β2-β3): 22 nM
EC50 (huNav1.7α + β1-β2-β3 [1]): 4.8 nM

B2: F010301882 (VHH)
VHH: B1 VHH with Q28A, I30V
notes: I30V vs F0103464B09 (Kabat)
Bmax (rhNav1.7α + β1-β2-β3): 43%
EC50 (rhNav1.7α + β1-β2-β3): 41 nM
EC50 (huNav1.7α + β1-β2-β3 [1]): 4.5 nM

B4: F010301883 (VHH)
VHH: B1 VHH with Q28A, I52V
notes: I51V vs F0103464B09 (Kabat)
Bmax (rhNav1.7α + β1-β2-β3): 48%
EC50 (rhNav1.7α + β1-β2-β3): 34 nM
EC50 (huNav1.7α + β1-β2-β3 [1]): 4.8 nM

B8: F010301884 (VHH)
VHH: B1 VHH with Q28A, N54A
notes: N53A vs F0103464B09 (Kabat)
Bmax (rhNav1.7α + β1-β2-β3): 47%
EC50 (rhNav1.7α + β1-β2-β3): 50 nM
EC50 (huNav1.7α + β1-β2-β3 [1]): 6 nM

B12: F010301878 (VHH)
VHH: B1 VHH with Q28A, G55E
notes: G54E vs F0103464B09 (Kabat)
Bmax (rhNav1.7α + β1-β2-β3): 83%
EC50 (rhNav1.7α + β1-β2-β3): 27 nM
EC50 (huNav1.7α + β1-β2-β3 [1]): 7.1 nM

B14: F010301881 (VHH)
VHH: B1 VHH with Q28A, G55W
notes: G54W vs F0103464B09 (Kabat)
Bmax (rhNav1.7α + β1-β2-β3): 99%
EC50 (rhNav1.7α + β1-β2-β3): 5.8 nM
EC50 (huNav1.7α + β1-β2-β3 [1]): 4.2 nM

B15: F010301880 (VHH)
VHH: B1 VHH with Q28A, G55S
notes: G54S vs F0103464B09 (Kabat)
Bmax (rhNav1.7α + β1-β2-β3): 73%
EC50 (rhNav1.7α + β1-β2-β3): 24 nM
EC50 (huNav1.7α + β1-β2-β3 [1]): 4.9 nM

Results, then the binder that gave them:

Bmax (rhNav1.7α + β1-β2-β3): 100%
EC50 (rhNav1.7α + β1-β2-β3): 18 nM
EC50 (huNav1.7α + β1-β2-β3 [1]): 8 nM
B3: F010301885 (VHH)
VHH: B1 VHH with Q28A, N54E
notes: N53E vs F0103464B09 (Kabat)

Bmax (rhNav1.7α + β1-β2-β3): 81%
EC50 (rhNav1.7α + β1-β2-β3): 15 nM
EC50 (huNav1.7α + β1-β2-β3 [1]): 4.3 nM
B5: F010301886 (VHH)
VHH: B1 VHH with Q28A, N59Q
notes: N58Q vs F0103464B09 (Kabat)

Bmax (rhNav1.7α + β1-β2-β3): 45%
EC50 (rhNav1.7α + β1-β2-β3): 26 nM
EC50 (huNav1.7α + β1-β2-β3 [1]): 4.7 nM
B6: F010301891 (VHH)
VHH: B1 VHH with Q28A, T58V
notes: T57V vs F0103464B09 (Kabat)

Bmax (rhNav1.7α + β1-β2-β3): 58%
EC50 (rhNav1.7α + β1-β2-β3): 20 nM
EC50 (huNav1.7α + β1-β2-β3 [1]): 5 nM
B7: F010301890 (VHH)
VHH: B1 VHH with Q28A, T35V
notes: T35V vs F0103464B09 (Kabat)

Bmax (rhNav1.7α + β1-β2-β3): 95%
EC50 (rhNav1.7α + β1-β2-β3): 8.7 nM
EC50 (huNav1.7α + β1-β2-β3 [1]): 5.3 nM
B9: F010301888 (VHH)
VHH: B1 VHH with S26H, Q28A
notes: S26H vs F0103464B09 (Kabat)

Bmax (rhNav1.7α + β1-β2-β3): 100%
EC50 (rhNav1.7α + β1-β2-β3): 9.1 nM
EC50 (huNav1.7α + β1-β2-β3 [1]): 4 nM
B10: F010301892 (VHH)
VHH: B1 VHH with Q28A, V33L
notes: V33L vs F0103464B09 (Kabat); also called F0103464B09(V33L)

Bmax (rhNav1.7α + β1-β2-β3): 51%
EC50 (rhNav1.7α + β1-β2-β3): 59 nM
EC50 (huNav1.7α + β1-β2-β3 [1]): 7.5 nM
B11: F010301887 (VHH)
VHH: B1 VHH with Q28A, R31Q
notes: R31Q vs F0103464B09 (Kabat)

Bmax (rhNav1.7α + β1-β2-β3): 92%
EC50 (rhNav1.7α + β1-β2-β3): 8.5 nM
EC50 (huNav1.7α + β1-β2-β3 [1]): 5.4 nM
B13: F010301889 (VHH)
VHH: B1 VHH with Q28A, S99A
notes: S95A vs F0103464B09 (Kabat)

Bmax (huNav1.7α + β1-β2-β3 [2]): 100%
EC50 (huNav1.7α + β1-β2-β3 [2]): 5.3 nM
B16: F010302341 (VHH)
VHH: EVQLVESGGGVVQPGGSLRLSCAASSRQFIRDVFTGWYRQAPGKQRELVARIYNEGNTNYADSAKGRFTISRDNAKKTVYLQMNSLRPEDTALYYCLFSGTISTGREYRSGDYWGQGTLVTVSS
